From article PMC12931730 (2025) come the findings set out here.

What is called Kd is the concentration at which binding is half-saturated.

Test [1] deals with T1, lysin motif (LysM) peptidoglycan-binding domain-containing protein (LPDP), recombinant (Staphylococcus lentus, UniProt A0A8I0UA09). Put plainly: MST; in the presence of tubuloside B.
Test [2] has as its target T1, lysin motif (LysM) …. Briefly: MST.

B1: PDZ and LIM domain 3 (PDLIM3) (natural protein)
chain: MPQNVVLPGPAPWGFRLSGGIDFNQPLVITRITPGSKAAAANLCPGDVILAIDGFGTESMTHADAQDRIKAASYQLCLKIDRAETRLWSPQVSEDGKAHPFKINLEAEPQEFKPIGTAHNRRAQPFVAAANIDDKRQVVSASYNSPIGLYSTSNIQDALHGQLRGLIPGSLQNEPTASVPPQSDVYRMLHDNRDDPAAPRQSGSFRVLQDLVNDGPDDRPAGTRSVRAPVTKVHGGAGSAQRMPLCDKCGSGIVGAVVKARDKYRHPECFVCADCNLNLKQKGYFFVEGELYCETHARARTRPPEGYDTVTLYPKA
modifications: fluorescently labeled with the Monolith His-Tag Labeling Kit (in the microscale thermophoresis only)
Take B1: the values for the Kd in test [1] and in test [2] were 4550 nM and 930 nM, respectively.
